Measured values published in PMC10182041 (2023).
Where no end group is shown, it is not given here.

Columns and labels:
[1] = molecular target: T1, Msi3, the sole Hsp110 of Candida albicans (Candida albicans, UniProt Q96VB9 1-701); experiment: FP
T1 chain: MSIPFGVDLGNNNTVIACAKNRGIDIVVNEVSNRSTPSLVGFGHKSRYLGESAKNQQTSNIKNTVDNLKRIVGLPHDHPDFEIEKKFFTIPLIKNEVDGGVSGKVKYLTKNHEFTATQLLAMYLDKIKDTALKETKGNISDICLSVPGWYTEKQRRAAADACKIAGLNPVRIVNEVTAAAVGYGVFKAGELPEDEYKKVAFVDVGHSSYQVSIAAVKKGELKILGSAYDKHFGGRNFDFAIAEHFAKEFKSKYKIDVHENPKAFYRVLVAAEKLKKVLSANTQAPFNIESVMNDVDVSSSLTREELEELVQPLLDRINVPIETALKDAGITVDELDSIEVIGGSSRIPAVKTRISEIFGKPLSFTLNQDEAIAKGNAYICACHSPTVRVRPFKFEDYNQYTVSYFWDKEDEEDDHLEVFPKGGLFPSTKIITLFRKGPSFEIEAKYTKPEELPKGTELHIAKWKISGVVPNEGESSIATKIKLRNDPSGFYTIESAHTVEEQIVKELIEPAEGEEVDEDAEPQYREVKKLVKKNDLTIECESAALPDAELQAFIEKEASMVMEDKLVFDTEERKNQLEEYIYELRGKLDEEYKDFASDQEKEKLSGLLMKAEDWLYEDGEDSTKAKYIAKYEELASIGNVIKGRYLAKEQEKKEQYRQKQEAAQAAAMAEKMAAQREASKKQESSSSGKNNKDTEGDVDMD

[2] = molecular target: T1, Msi3, the sole Hsp110 of Candida …; experiment: FP; +2H (100 µM)

Binder: fluorescein-VYDFFVWL [TRP2-181 peptide labeled with a fluorescein at the N-terminus]
- Kd [1]: 0.65 µM
- Kd [2]: 5.45 µM
